Data on one sequence can be found in patent publication US20180023049A1, “SYNTHETIC PEPTIDE HYDROGEL FORMULATIONS FOR USE AS EXTRACELLULAR MATRIX” (3-D MATRIX, LTD., priority 2015, published 2018).

Series [1] is described as follows: pH, pKa and isoelectronic point of PuraMatrix. The format is physicochemical. Particulars: aqueous 1% PuraMatrix solution, in this study. The source says: Isoelectronic point (pI) is the pH at which a particular molecule carries no net electrical charge. PuraMarix® has four arginine and four aspartic acid. […] That means that there is no net electrical charge between around pH 3.9 and around pH 11.5, where the solubility of PuraMatrix® becomes low. Usually, aqueous PuraMatrix® solution has its pH level at 2.0-2.5. […] Although isotonic PuraMatrix® formulated in 10% sucrose solution has been used for cell culture experiments as shown in the current PuraMatrix® cell culture protocol, the pH of PuraMatrix® with 10% sucrose was also 2.2.

The conditions of series [2]: cited from earlier work.

RADARADARADARADA [PuraMatrix®]: in series [1], the pH was 2.2. In addition, in series [2] (aqueous PuraMatrix solution, usually), the pH level was 2.0-2.5. For the same sequence, the solubility entry in series [2] (between around pH 3.9 and around pH 11.5) is reported as “low”. Also, in series [2], the “pKa of aspartic acid in PuraMatrix” value is on record as 3.9.
